Measurements: patent US20260069689A1

How the values were obtained:
[1] = biological target: full-length SARS-CoV-2 spike protein (Wuhan-Hu-1) on Jurkat/hCD20 cells (SARS-CoV-2) (UniProt P0DTC2); assay: cell-based or functional assay
[2] = biological target: human FcγR3a 176Val allotype receptor (human) (UniProt P08637); assay: cell-based or functional assay
[3] = biological target: T1, human CD20 on Jurkat cells (human) (UniProt P11836); assay: cell-based or functional assay
T1 sequence: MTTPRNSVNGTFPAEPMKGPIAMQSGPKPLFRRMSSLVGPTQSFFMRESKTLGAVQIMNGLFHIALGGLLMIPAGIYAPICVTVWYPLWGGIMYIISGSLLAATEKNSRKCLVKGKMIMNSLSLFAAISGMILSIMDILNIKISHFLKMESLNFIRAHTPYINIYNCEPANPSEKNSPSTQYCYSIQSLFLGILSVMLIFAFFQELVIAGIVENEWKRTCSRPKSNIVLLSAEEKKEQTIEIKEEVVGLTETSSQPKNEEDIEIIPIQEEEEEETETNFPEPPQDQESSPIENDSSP

hACE-2-10His (human) = hACE-2-10His (human) (UniProt Q9BYF1); assay: ELISA, hACE-2-10His coated on the plate

Substance | EC50 (M) of ADCC, NK donor #3, Jurkat/hCD20/SARS-CoV-2 S FL cells [1] [M] | EC50 (M) of ADCP, MDM donor #1, Jurkat/hCD20/SARS-CoV-2 S FL cells [1] [M] | EC50 (M) of ADCP, MDM donor #2, Jurkat/hCD20/SARS-CoV-2 S FL cells [1] [M] | EC50 [M] of ADCP, macrophages, Jurkat/hCD20/SARS-CoV-2 spike cells [1] [M] | Max % ADCP, macrophages, Jurkat/hCD20/SARS-CoV-2 spike cells [1] [%] | Max ADCP (%), MDM donor #1, Jurkat/hCD20/SARS-CoV-2 S FL cells [1] [%] | Max ADCP (%), MDM donor #2, Jurkat/hCD20/SARS-CoV-2 S FL cells [1] [%] | Max cytotoxicity (%), ADCC, NK donor #1, Jurkat/hCD20/SARS-CoV-2 S FL cells [1] [%] | Max cytotoxicity (%), ADCC, NK donor #2, Jurkat/hCD20/SARS-CoV-2 S FL cells [1] [%] | Max cytotoxicity (%), ADCC, NK donor #3, Jurkat/hCD20/SARS-CoV-2 S FL cells [1] [%] | EC50 (M), Jurkat/CD20/spike [2] [M] | Max ADCP (%), MDM donor #1, Jurkat/hCD20 cells [3] [%] | Max ADCP (%), MDM donor #2, Jurkat/hCD20 cells [3] [%] | Max cytotoxicity (%), ADCC, NK donor #1, Jurkat/hCD20 cells [3] [%] | Max cytotoxicity (%), ADCC, NK donor #2, Jurkat/hCD20 cells [3] [%] | Max cytotoxicity (%), ADCC, NK donor #3, Jurkat/hCD20 cells [3] [%] | also measured
mAb10933 (antibody) | 4.89e-11 | 9.7e-12 | 2.23e-11 | 3.88e-11 | 33.1 | 28.3 | 28.6 | 1.4 | 5 | 11.1 | 6.47e-10 | 14 | 11.5 | 4.7 | 3.6 | 1.2 | Fold induction, Jurkat CD20 [2]: 1.1 fold; Fold induction, Jurkat/CD20/spike [2]: 2.9 fold
IgG1 isotype control (antibody) | – | – | – | – | – | 13.1 | 9.6 | 1.8 | 0 | 0 | – | 16.9 | 14.6 | 0.7 | 6.4 | 0.5 | Max cytotoxicity (%), ADCC, pooled primary NK cells, Jurkat/hCD20 cells [3]: 0.6%
SARS-CoV-2 RBD.mmh | – | – | – | – | – | – | – | – | – | – | – | – | – | – | – | – | EC50 (hACE-2-10His (human)): 0.3 nM
casirivimab + imdevimab | 3.6e-11 | 1.2e-10 | 5.78e-11 | – | – | 49.5 | 48.2 | 1.6 | 4.1 | 15.4 | – | – | – | – | – | – | –
mAb10987 (antibody) | 6.44e-11 | 2.91e-11 | 1.98e-11 | 3.19e-11 | 36.3 | 32.3 | 30.4 | 8.1 | 10.5 | 26.6 | 4.71e-10 | 14.8 | 10.7 | 3.9 | 1.9 | – | EC50 (M) of ADCC, NK donor #1, Jurkat/hCD20/SARS-CoV-2 S FL cells [1]: 7.42e-10 M; EC50 (M) of ADCC, NK donor #2, Jurkat/hCD20/SARS-CoV-2 S FL cells [1]: 5.05e-09 M
